# Reference: publication PMC8285524, “Selective targeting of ligand-dependent and -independent signaling by GPCR conformation-specific anti-US28 intrabodies” (Nature Communications, 2021)
# T1: US28 wildtype (human cytomegalovirus (HCMV), UniProt P69332 1-354, Strain: VHL/E is stated for some constructs, but its sequence is neither printed nor among the candidates. The AD169 entry is used as the closest wild type, so a few strain-specific residues may diffe)
# T1 chain: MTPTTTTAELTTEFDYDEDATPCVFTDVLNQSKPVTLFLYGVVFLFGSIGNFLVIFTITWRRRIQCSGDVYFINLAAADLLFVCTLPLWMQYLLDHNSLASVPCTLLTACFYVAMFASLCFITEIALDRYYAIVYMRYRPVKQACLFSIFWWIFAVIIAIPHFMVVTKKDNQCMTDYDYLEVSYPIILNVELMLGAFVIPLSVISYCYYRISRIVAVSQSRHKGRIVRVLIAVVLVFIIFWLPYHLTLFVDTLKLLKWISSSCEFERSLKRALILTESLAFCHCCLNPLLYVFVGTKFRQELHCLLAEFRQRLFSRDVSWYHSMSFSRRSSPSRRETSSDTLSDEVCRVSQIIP
# Tests used:
# [1] = target: NLuc-US28-Irr Nb (human cytomegalovirus (HCMV)) (UniProt P69332); assay: FRET or BRET; BRET-based saturation binding of Alexa647-labeled chemokine (0.1 pM-10 nM) to 100 ng membranes with NLuc-US28 constructs; HBSS with 0.05% BSA, 1 h at RT, 10 µM furimazine
# [2] = target: NLuc-US28-Nb7 (human cytomegalovirus (HCMV)) (UniProt P69332); assay: as above
# [3] = target: NLuc-US28-VUN103 (human cytomegalovirus (HCMV)) (UniProt P69332); assay: as above
# [4] = target: NLuc-US28 WT (human cytomegalovirus (HCMV)), P69332; assay: as above
# US28 wildtype [5] = target: T1, US28 wildtype; assay: radioligand binding; as a1, displacement of 125I-CCL5, membranes of HEK293T cells co-expressing US28 WT and the intrabody Nb7-mVenus; conditions: one partner purified
# US28 wildtype [6] = target: T1, US28 wildtype; assay: radioligand binding; as a1, displacement of 125I-CCL5, membranes of HEK293T cells co-expressing US28 WT and the intrabody VUN103-mVenus; conditions: one partner purified
# US28 wildtype [7] = target: T1, US28 wildtype; assay: radioligand binding; displacement of 100 pM 125I-CX3CL1 or 200 pM 125I-CCL5 from 3 µg US28-expressing membranes (no intrabody) by unlabeled ligand; HEPES binding buffer pH 7.4, 0.1 M NaCl, 0.5% BSA; 2 h at room temperature; GF/C filtration; conditions: one partner purified
molecule,measurement,setting,value
CX3CL1-Alexa647 (from UniProt P78423 25-341) (ligand),pKD,[1],9.6
same,pKD,[2],10.4
same,pKD,[3],9.6
"CX3CL1-Alexa647, P78423 25-341 (ligand, here or on the partner: Alexa Fluor 647 label) QHHGVTKCNITCSKMTSKIPVALLIHYQQNQASCGKRAIILETRQHRLFCADPKEQWVKDAMQHLDRQAAALTRNGGTFEKQIGEVKPRTTPAAGGMDESVVLEPEATGESSSLEPTPSSQEAQRALGTSPELPTGVTGSSGTRLPPTPKAQDGGPVGTELFRVPPVSTAATWQSSAPHQPGPSLWAEAKTSEAPSTQDPSTQASTASSPAPEENAPSEGQRVWGQGQSPRPENSLEREEMGPVPAHTDAFQDWGPGSMAHVSVVPVSSEGTPSREPVASGSWTPKAEEPIHATMDPQRLGVLITPVPDAQAATRRQ",pKD,[4],9.6
"CX3CL1 (unlabeled) (ligand, UniProt P78423 25-341, looked up, CX3CL1 (fractalkine), chemokine ligand of US28; also called fractalkine; source: bought: PeproTech (stated for the BRET assays)) QHHGVTKCNITCSKMTSKIPVALLIHYQQNQASCGKRAIILETRQHRLFCADPKEQWVKDAMQHLDRQAAALTRNGGTFEKQIGEVKPRTTPAAGGMDESVVLEPEATGESSSLEPTPSSQEAQRALGTSPELPTGVTGSSGTRLPPTPKAQDGGPVGTELFRVPPVSTAATWQSSAPHQPGPSLWAEAKTSEAPSTQDPSTQASTASSPAPEENAPSEGQRVWGQGQSPRPENSLEREEMGPVPAHTDAFQDWGPGSMAHVSVVPVSSEGTPSREPVASGSWTPKAEEPIHATMDPQRLGVLITPVPDAQAATRRQ",pKi,US28 wildtype [5],10.7
same,pKi,US28 wildtype [6],9.7
same,pKi,US28 wildtype [7],9.9
